Test results from the supplement of paper PMC9170038.

System: MS2 coat protein
Assay: apparent KD of MS2 coat protein; designed switch direction (-1 OFF switch, 1 ON switch): 1; higher = weaker reporter binding
Procedure, shortened: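 RNA switches sharing common flanks were transcribed by stalled E. coli RNA polymerase on Illumina chips. A doubling series of SNAP-549-labelled MS2 coat protein, from 0.7 or 1.5 nM to 3 µM, was applied in Tris-HCl pH 7.5 buffer with KCl, MgCl2, BSA, DTT, tRNA and Tween-20. Each step lasted 0.8–1.5 h at the bottom of the series and 10–20 min at the top. Normalised cluster fluorescence was curve-fitted, giving apparent KD as the per-design median over clusters.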

[1] = input ligand: microRNA oligo, concentration not stated
[2] = Eterna round: R95, input ligand: FMN 200 uM
[3] = Eterna round: R95, input ligand: microRNA oligo, concentration not stated
[4] = Eterna round: R95, input ligand: none

Sequence	apparent KD of MS2 coat protein (input ligand: FMN 200 uM) [nM]	apparent KD of MS2 coat protein [1] [nM]	apparent KD of MS2 coat protein (input ligand: none) [nM]	apparent KD of MS2 coat protein [2] [nM]	apparent KD of MS2 coat protein [3] [nM]	apparent KD of MS2 coat protein [4] [nM]
UGUUAUUUGACAGGAUAUUGAUUGUAAAGUUUUUACAUGAGGAUCACCCAUGUUGUUCAUUCGAACAAGAAGGGUCAAGUUUUU [JR_SSNG2_Sub019] (Eterna round: R96, puzzle: Same State NG 2)	1070	48.2	172	–	–	–
UGUUAUUUGACAGGAUAUUGAUUGUUAAGUUUUUACAUGAGGAUCACCCAUGUUGUUCAUUCGUACAAGAAGGGUCAAGUUUUU [JR_SSNG2_Sub020] (Eterna round: R96, puzzle: Same State NG 2)	–	52.6	–	–	–	–
UGUUGUAUUACAGGAUAUCUAAUAUUUUUAUUUAGAGAAGGGUAUUCACAUGAGGAUCACCCAUGUAUAUACGAGGAAGUUGUG [JMF's solution 8] (Eterna round: R96, puzzle: Same State NG 1)	–	24.6	–	–	–	–
UGUUGUAUUACAGGAUAUCUAGUAUUUUUAUUUAGAGAAGGGUAUUCACAUGAGGAUCACCCAUGUAUAUACGAGGAAGUUGUG [JMF's solution 9] (Eterna round: R96, puzzle: Same State NG 1)	–	28	–	–	–	–
UGUUGUAUUACAGGAUAUCUAGUGUUUUUAUUUAGAGAAGGGUAUUCACAUGAGGAUCACCCAUGUAUAUACGAGGAAGUUGUG [JMF's solution 34] (Eterna round: R96, puzzle: Same State NG 1)	–	43	–	–	–	–
UGUUGUAUUACAGGAUAUCUAUUGUAUUUAUUUAGAGAAGGGUAUUCACAUGAGGAUCACCCAUGUAUAUACGAGGAAGUUGUG [JMF's solution 73] (Eterna round: R96, puzzle: Same State NG 1)	–	46.7	–	–	–	–
UUAAAGAAGUAAGGAUAUACAUGAGGAUCACUCGUAGAAGGUACUAAACAUGAGGAUCACCCAUGUACCGGUCCGUAGACUGGA [Mat - Same State NG 1 - JL mod - D2] (Eterna round: R96, puzzle: Same State NG 1)	960	248	483	–	–	–
UUAACAUGAGGAUCACCCAUGUAUAGGGAGUUUGCAAUUUGACAGGAUAUUGAAGAUUUAUAUAGCAAGAAGGGUCGUUAGUCU [JR_SSNG3_Sub005] (Eterna round: R96, puzzle: Same State NG 3)	38	44.9	53.6	–	–	–
UUAAUGAUGUAAGGAUAUACAUGAGGAUUUCUCGUAGAAGGUACAAGACAUGAGGAUCACCCAUGUGUCGCUCAAUAGAGCGUA [Mat - Same State NG 1 - JL mod - D19] (Eterna round: R96, puzzle: Same State NG 1)	268	138	292	–	–	–
UUAAUUUACUGAGGAUAUCGUGUCGACUGAGUUGACAUGAGGAUCACCCAUGUGAGAAGUGGUAUCGAGAAGGCAGUAUUCAUA [JR_SSNG2_Sub023] (Eterna round: R96, puzzle: Same State NG 2)	16.1	28.9	42	–	–	–
UUAGAAUUGCAAGGAUAUCUAAUUUAGAUAGUAAGAGAAGGUGCUUUAUAGUUACAUGAGGAUCACCCAUGUUUUUUUGUUUAU [JR_SSNG1_Sub059] (Eterna round: R96, puzzle: Same State NG 1)	–	26.5	–	–	–	–
UUAUCAUUGCAAGGAUAUUGAUUACAUGAGGAUCACCCAUGUUAAUGAACACUAUGUACUACUAACAAGAAGGUGCUAUAAAUU [JR_SSNG2_Sub041] (Eterna round: R96, puzzle: Same State NG 2)	35.1	28	34.3	–	–	–
UUAUUAUUUACAUGAGGAUCACCCAUGUUUUUAUGUCAGAGAUAGGAUAUAGAAGUCUCGUUUUACUAGAAGGAUCUUUUUAUU [JR_SSNG3_Sub083] (Eterna round: R96, puzzle: Same State NG 3)	21.2	16.7	22.8	–	–	–
UUCCCAGCGGGAGGAUAUGGUGCCUUGUUGGUGCUAGAAGGUCCAACAUGAGGAUCACCCAUGUGGGAGUGGUCGAGAGACCUC [SS NG10LRO10] (Eterna round: R96, puzzle: Same State NG 1)	307	238	427	–	–	–
UUCGAGUUGCAAGGAUAUCUUAUUUAGAUUUUAAGAGAAGGUGCUUCACAGCUACAUGAGGAUCACCCAUGUCUUUCUUCUUAU [JR_SSNG1_Sub064] (Eterna round: R96, puzzle: Same State NG 1)	–	22.6	–	–	–	–
UUCUGACAUGAGGAUCACCCAUGUGAGACAUAUGGAGAAUCUCAGGAUAUCCUGAGGAUCACCCAGGAGAAGGGAGAUCCGACC (Eterna round: R96, puzzle: Same State NG 3)	32	43.7	45.7	–	–	–

Sequence	apparent KD of MS2 coat protein (input ligand: FMN 200 uM) [nM]	apparent KD of MS2 coat protein [1] [nM]	apparent KD of MS2 coat protein (input ligand: none) [nM]	apparent KD of MS2 coat protein [2] [nM]	apparent KD of MS2 coat protein [3] [nM]	apparent KD of MS2 coat protein [4] [nM]
UUGAAGAAUUAAGGAUAUCGAGUACAUAUGUUAAACAUGAGGAUCACCCAUGUGGGUUGCGGUAUCGAGAAGGUAAAUUACAAG [JL SSNG2 1.42] (Eterna round: R96, puzzle: Same State NG 2)	30.2	25.6	36.5	–	–	–
UUGAAGAAUUAAGGAUAUCGAGUCAAGAUGUUAAACAUGAGGAUCACCCAUGUGGGUUGCGGUAUCGAGAAGGUAAAUAAGAAG [Mat - Same State NG 2 - JL mod - D54] (Eterna round: R96, puzzle: Same State NG 2)	44.3	29.6	44.8	–	–	–
UUGAAGAAUUAAGGAUAUCGAGUCAAGAUGUUAAACAUGAGGAUCACCCAUGUGGGUUGCGGUAUCGAGAAGGUAAAUUACAAG [JL SSNG2 1.41] (Eterna round: R96, puzzle: Same State NG 2)	34.8	26.9	34.9	–	–	–
UUGAAGAAUUAAGGAUAUCGAGUCGUCUAAUUAAACAUGAGGAUCACCCAUGUGGGUUGCGGUAUCGAGAAGGUAAAUUACUAA [JL JR Sub099 mod 1] (Eterna round: R96, puzzle: Same State NG 2)	14.3	20.6	32.2	–	–	–
UUGAAGAAUUAAGGAUAUCGAGUCGUCUAAUUAAACAUGAGGAUCACCCAUGUGGGUUGUGGUAUCGAGAAGGUAAAUUACUAA [JR_SSNG2_Sub099] (Eterna round: R96, puzzle: Same State NG 2)	74.4	65.3	95.1	–	–	–
UUGAAGAAUUAAGGAUAUUGAAUACAUAUGUUUAACAUGAGGAUCACCCAUGUGGGUUGCGGUGUCGAGAAGGUAAAUUAAUAG [Mat - same State NG 2 - JL mod - D94] (Eterna round: R96, puzzle: Same State NG 2)	221	191	291	–	–	–
UUGAAGAAUUAAGGAUAUUGAUUACAUAUGUAUAACAUGAGGAUCACCCAUGUGGGUUGCGGUAUCGAGAAGGUAAAUUACUAG [Mat - same State NG 2 - JL mod - D75] (Eterna round: R96, puzzle: Same State NG 2)	145	98.5	98.2	–	–	–
UUGAGGUGUCAAGGAUAUGCUACCGUUUCGGUAGCAGAAGGUGAUCACAUGAGGAUCACCCAUGUAUGCAUGCGUGAGCGUGCU [JL SSNG1 3.61] (Eterna round: R96, puzzle: Same State NG 1)	–	23.4	–	–	–	–
UUGAUGAAUUAAGGAUAUCGAGUCGUCUAAUUAAACAUGAGGAUCACCCAUGUGGGUUGUGGUAUCGAGAAGGUAAAUUACUUA [JR_SSNG2_Sub098] (Eterna round: R96, puzzle: Same State NG 2)	66.2	67.5	92.6	–	–	–
UUGUUUGGUAAAAUACAUGAGGAUCACCCAUGUUAUGGUGCAGAGGAUAUGCAUGUUUGAUUGAAGCAGAAGGCUGUAAGUUGU [JR_SSNG3_Sub036] (Eterna round: R96, puzzle: Same State NG 3)	35.7	35.5	43.7	–	–	–
UUGUUUUGAAAUUUACAUGAGGAUCACCCAUGUCGUGAGACAGAGGAUAUACAGGAAUGUAGGUAGUAGAAGGCUGUUUUGUGU [JR_SSNG3_Sub100] (Eterna round: R96, puzzle: Same State NG 3)	49.5	97.6	123	–	–	–
UUGUUUUGUAAUUAACAUGAGGAUCACCCAUGUCUUGGCUCAGAGGAUAUACAUGUUUGUUUGUAGUAGAAGGCUGUUUGUUGU [JR_SSNG3_Sub095] (Eterna round: R96, puzzle: Same State NG 3)	94.7	107	131	–	–	–
UUUAAACAUGAGGAUCACCCAUGUUUUUUCAUGGGAGGAUAUCUAAGUUAAUUAUAUUAAGGAGAAGGCCUAUUUU [× ×•×ª×• ×ž×“×™× ×” × ×—×ª-05] (puzzle: Same State 1)	–	–	–	111	48.8	53.1
UUUAAACAUGAGGAUCACCCAUGUUUUUUCAUGGGAGGAUAUCUGAGUUAAUUAUAUUAAGGAGAAGGCCUAUUUU [× ×•×ª×• ×ž×“×™× ×” × ×—×ª-01] (puzzle: Same State 1)	–	–	–	102	38.6	75.9
UUUAAACAUGAGGAUCACCCAUGUUUUUUUAUGGGAGGAUAUCUAAGUUAAUUAUAUUAAGGAGAAGGCCUAUUUU (Eterna round: R96, puzzle: Same State 1)	28.1	136	145	–	–	–
